Holding throughout (assay): SEC
A general note: SEC sorts molecules by how far they enter the pores of the column.

Assay [1] addresses SARS-CoV-2 Beta Spike protein (B.1.351), tagless (SARS-CoV-2 | bacteriophage T4 (from the name T4 fibritin)) (UniProt P0DTC2).
The target in assay [2] is SARS-CoV-2 D614G Spike protein, tagless (SARS-CoV-2 | bacteriophage T4 (from the name T4 fibritin)) (UniProt P0DTC2).
Assay [3] has as its target SARS-CoV-2 Delta Spike protein (B.1.617.2), tagless (SARS-CoV-2 | bacteriophage T4 (from the name T4 fibritin)) (UniProt P0DTC2).
Assay [4] has as its target SARS-CoV-2 Gamma Spike protein (P.1), tagless (SARS-CoV-2 | bacteriophage T4 (from the name T4 fibritin)) (UniProt P0DTC2).

As usually defined, the stoichiometry N is a count of units in the complex or per binding partner. In turn, “SARS-CoV-2 Beta Spike protein (B.1.351), tagless (from UniProt P0DTC2 1-1208) (natural protein)” showed a stoichiometry N in assay [1] of 3. “SARS-CoV-2 D614G Spike protein, tagless (from UniProt P0DTC2 1-1208) (natural protein)”: the stoichiometry N in assay [2] was found to be 3. Consider “SARS-CoV-2 Delta Spike protein (B.1.617.2), tagless (from UniProt P0DTC2 1-1208) (natural protein)”, for which, in assay [3], the stoichiometry N came out at 3. Regarding “SARS-CoV-2 Gamma Spike protein (P.1), tagless (from UniProt P0DTC2 1-1208) (natural protein)”, the stoichiometry N in assay [4] was 3.
